Data on four substances can be found in paper PMC7349027.

Assay in all cases: non-reducing SDS-PAGE with Western blot
Assay [1] concerns the target soluble truncated gp120 from the CRF02_AG isolate (Sgp120t-AG) (HIV-1 clade CRF02_AG).
Assay [2] deals with truncated gp120 from the HIV-1 clade B isolate (gp120t-B) (HIV-1 clade B).
The target in assay [3] is truncated gp120 from the HIV-1 clade C isolate (gp120t-C) (HIV-1 clade C).
The target in assay [4] is truncated gp120 from the HIV-1 clade J isolate (gp120t-J) (HIV-1 clade J).

In turn, “soluble truncated gp120 from the CRF02_AG isolate (Sgp120t-AG) (domain or fragment)” yielded a stoichiometry N in assay [1] of 2.
In turn, “truncated gp120 from the HIV-1 clade B isolate (gp120t-B) (domain or fragment)” displayed a stoichiometry N in assay [2] of 2.
“truncated gp120 from the HIV-1 clade C isolate (gp120t-C) (domain or fragment)” displayed a stoichiometry N in assay [3] of 2.
Regarding “truncated gp120 from the HIV-1 clade J isolate (gp120t-J) (domain or fragment)”, the stoichiometry N in assay [4] came out at 2.

The term stoichiometry N denotes a count of units in the complex or per binding partner.
